Experiment: yeast display, Sf9 membrane polyspecificity reagent, FACS + sequencing; frameworks hold sequencing errors
How it was run: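 Using colony PCR, genes from sorted yeast display clones were amplified, then sequenced on MiSeq at 2 × 250 and filtered by CDR length. The clones had been stained with 10% biotinylated, detergent-solubilized Sf9 membrane reagent for 1 hour at 4 °C and sorted by FACS into low and high (top ~1%) gates on anti-HA and streptavidin fluorescence. Polyreactivity labels come from the gate of origin.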

| Sequence | polyreactivity (PSR sort gate) |
| --- | --- |
| QVQLVESGGGLVQAGGSLRLSCAASGFTFASYAMGCYIQPPGKEMELVAAITWSGGSTYYADSVKGRFTISRDNAKNTVYLQMNSLKPEDTAVYYCNALVIARNIEMDYWGQGTQVTVSS | high polyreactivity |
| QVQLGESGGGLVQAGGSLRLSCAASGSIFGSYAMGWYRQAPGKERELVAAISKSGGNTYYADSVKGRFTISRDNAKNTDYLQMNSLKPEDTAVYYCAAYGFYRWRGYDYWGQGTQVTLSS | high polyreactivity |
| QVQLVESGGGLVQAGGSLRLSCPASGYTFYKNAMGWYRQPPGKERELVAAISYSGGRTYYADSVKGRFTISRDNAKNTVYLQMNSLKPEDTAVYYCAKATRVITDDGSYGYWGQGSQVTVSS | high polyreactivity |
| QVQLVESGGGLVQAGGSLRLSCAASGSTFDLYAMGWYRQAPGKEREFVASISWRGTNTYYADSVKGRFTISRDNAKNTVYLQMISLKPEDTAVYYCYAVRGWTTRYDYWGQGTQVTVSS | high polyreactivity |
| QVQLVESGGGLVQAGGSLRLTCAASGLTFGGNAMGWYRQAHRKERELVAAISWSDDTTDYADSVKGRFTISRDNAKNSVYLQMNSLNPEDTAIYYCAARLPFEHVDYWGQGTQVTVSS | low polyreactivity |
| QVQLVESGGGLVQAGGSLRLSCAASGSISYTYAMGWYRQAPGKERELVAAISYSEGITYYADSVKGRFTISRDNAKNTVYLQMNSLKPEDTAVYYCAVEGVYPYYDQSEYDYWGQGTQVTVSS | high polyreactivity |
| QVQLVESGGGLVQAGGSLRLSCAASGSIFVRNAMGWYRQSPGKERELVAAITSGDSTNYADSVKGRFTISRDNAKNTVYLQMYCLKPEDTAVYYCNAQIYSVYRDGRDIYKYDYWGQGTQVTVSS | low polyreactivity |
| QVQLVESGGGLVQAGGSLRLSCAASGSIFGTYAMGWYRQAPGKERELVAAITGNGGRTYYADSVKGRFTISRDNAKNTVYLQMNSLKPEDTAVYYCAKATSRRGFYYWGQGTQVTVSS | high polyreactivity |
| QDQHVESGGGLVQAGGSLRLSCAASGSTFVYYAMGWYRQAPGKERELVAVITWSGGRTYYADSVKGRFTISRDNAKNTVYLQMNSLKPEDTAGYYCAADPLSGYDYWGQGTQVTVSS | low polyreactivity |
| QVQLVESGGGLVQAGGSLRLSCAASGYIFVTNAMGWYRQAPGKERELVAAISYRGGSTSYADSVKGRFTISRDNAMNTVYLQMNSLKPEDTAVYYCNAVTFPLGYLRFYYWGQGTQVTVSS | low polyreactivity |
| QVQLVESGGGLVQAGGSLRLICAASGFISSENAMGWYRQAPGKERELVAAISSGGSTNYADSVKGRFTISRDNAKYTVYLQMYSLKPEDTAVYYCNAEAIQAVYYAYEYWGQGTQVTVSS | low polyreactivity |
| QVQLVESGGRLVQARGSLRLSCAASGRIFAYYTLGWYRQAPGKERELVAVISGSGGRTYYADSVKGRFTISRDNAKNTVYLQMNSRKPDDTAVYYCAAYYQGIKYDYWGQGTQVTVSS | high polyreactivity |
| QVQLVESGGGLVQAGGSLRLSCAAYGSIFGGNAMGWYRQAPGKERELVARITDRGGSTDYADSVKGRFTISRDNAKNTVFLHMNSLKREDTAVYYCAKRGDRYEQRPRDYWGQGTQVTVSS | low polyreactivity |
| QVQLVESGGGLVQAGGSLRLSCAASGRTFTYNTMGWYRQAPGKERELVAAISSSGGSTYYADSVKGRFTISRDNAKNTVYLQMNSLKPEDTAVYYCAKRYFSSSRYYYWGQGTQVTVSS | high polyreactivity |
| QVQLVESGGGLVQAGGSLRLSCAASGYTFTGYAMGGYRQAPGKERECVAGITWRTGRTYYADSVKGRFTISRDNAKNTGYLQMNSLIPEDTAVYYCNKDHQRGYYWSYDYWGQGTQVTVSS | low polyreactivity |
| QVQLVESGGGLVQAGGSLRLSCAASGSIFVINPMGWYRPAPGKERELVATIRARAGSTYYADSVKGRFTISRDNAKNSVYLQMNSLKPEDTAVYYCAARLKSYRVDYWGQGTQVTVSS | high polyreactivity |
| QVQIVESGGGLVQAGGSLRLSCAASGSIFYYYAMGWYRQAPGKERELVAAITRSGGSTYYADSVKGRFTISRDNEKNTVYLQMNSLKPEDTAVYYCAKDAHAYRDLDYWGQGTQVTVSS | low polyreactivity |
| QVQLVESGGGLVQAGGSLRLSCAASGRTFIFNAMGWYRQAPGKERELVAAISSGGGTNYADSVKWRFTISRDNAKNTVYLQMNSMKPEDTAVYYCAAVPRDHYSYVYDGDKYDYWGQGTQVTVSS | low polyreactivity |
| QGQLVESWGGLVQAGGSLRLSCAASGSTFVFNAMGWYRQAPGKERELVAAISIDGSTNYADSVKGRFTISRDNAKNTVYLQMNSLEPEDTAVYYCNAKRYGFFYWQGDYWGQGTQVTVSS | low polyreactivity |
| QVQLVESGGGLVQAGGSLRLSCAASGRIFAGNTKGWYRQAPGKERELVAAITSSGGSTYYADSVKGRFTISRDNANTTVYLQMNSLKPEDTAVYYPIVYYVKYYYWGQGTQVTVSS | high polyreactivity |
| QVQLVESGGGLVQAGRSLRLSCAASGSTFWPNAMGWYRPAPGKERELVAAITSGGRTKYADSVKGRFTISRDNAKNTVYLQMNSLKPEDTAFYYCAKRKGDRGAWIHAYGWEDVDYWGQGTQVTVSS | low polyreactivity |
| QVQLVESGGGLVQAGGSLRLSCASSGRIFKYNAMGWYRQAPGKERELVAAISSSGARTYYADSVKGRFTISRDNAKNTVYLQMNSLKPEDTAVDYCAAPFTSNRSIRPYGYWGQGTQVTVSS | high polyreactivity |

| Sequence | polyreactivity (PSR sort gate) |
| --- | --- |
| QVQLVESGGGLVQAGGSLRLSCAASGSTFVGYVMGWYRQAPGKERELVAAITRSGTSTYYADSVKGRFTISRDNAKNTVYLQMNSLKPEDTAVYYCALRYVSSDYYYWGQGTQVTVSS | low polyreactivity |
| QVQLQESGGGLVQAGGSLRLSCAASGTIFRFRYMGWHRQAPVKERELVAGINGGTTTYYADSVIGRFTISRDNAKNTVYLQMNSLKADDTAVYNCAAGASRLTYYDYWGQGTQVTVSS | low polyreactivity |
| QVQLVESGGGLVQAGGSLRLSCAASGSTFWFYAMGWYRQAPGKERELVAVISNSGSTYYADSVKGRFTISRDNAKNTVYLQMNSLKPEDTAVYYCNKDGGGDSYWYDYWGQGTLVTVSS | low polyreactivity |
| QVQLVESGGGLVQAGGSLRVSCAASGFTFDQYAMGWYRQAPGKERELVAAISWSGASTYYADSVKGRFTISRDNAKNTDDLQMNSLKPEDTAVYYCAVSRRRIDYDYWGQGTQVTVSS | high polyreactivity |
| QVQLVESGGGLVQAGGSLRLSCAASGSTIDTYAMGWYRQAPGKERELVAGISWSGGSTFYADSVKGRFTISRDNAKNTVYLQMNSLKPEDTAVYYCAKQLWVGVKYDYWGQGTQVTVSS | low polyreactivity |
| QVQLVESGGGLVQAGGSLRLSSAASGRIFRRNTMGWYRQAPGKERELVAAITSSGGSTYADSVKGRFTISRDNAKNTVYLQMNSLKPEDTAVYYCATYVAYHRGYRTYDHWGQGTQVTVSS | low polyreactivity |
| QFQLVESGGGLVQAGGSLRLSSAPSGIIFPYYAMGWYRQAPGKERELVAAISRTGSTYYADSVKGRFTISRDNAKNTVYLQMNRLNPEVTAVYYCAARTYYSQGTSSVSLQQYGYWGEGTQVTVSS | low polyreactivity |
| QVQLVESGGGLVQAGGSLRLSCAASGRTFRRYAMGWYRQAPGKERELVAASSRGANTNYADSVKGRFTISRDNAKNTFYLQMNSLKPEDTAVYYCNAKQAGYYFAFGYWGQGTQVTVSS | high polyreactivity |
| QVQLVESGGGLVQAGGSLRLSCAASGFIIANNAMGWYRQAPGKERELVASIRTRGGSTYYADSVKGRFTISRDNAKNTVYLQMNSLKPEDTAVYYSAARPFPRRYDYWGQGTQVTVSS | low polyreactivity |
| QVQLVESGGGLVQAGGSLRLSCAASGITFLTYTMGWYRQAPGKERELVAAISRSGGRTYYADSVKGRFTISRDNAKNTVYFQMNSLKPEDTAVYYCAAVSANQDFDYWGQGTQVTVSS | high polyreactivity |
| QVQLVESGGGLVQAGGSLRLSCAASGRIFFYNAMGWYRQAPGKETELVAAISSSGGSTSYADSVKGRFTISRDIAKNTVYLHMNSLKPEDTAVYYCAVDDPYYEKYDYWGQGTQVTVSS | low polyreactivity |
| QVQLVESGGGIVQAGGSLRLSCAASGRIFQLYGMGWYRQAPGKERECVAAISYGGGSTYYADSVKGRFTISRDIAKNTVYFKMNSLKPEDTAVYYCAAERRFYSLAKYQSMDYWGQGTQVTVSS | low polyreactivity |
| QVQLVESGGGLVQAGGSLRLSCAASGSIFAAYVMGWYRQAPGKERELVAAISYSGGGTYYADSVKGRFTISRDNAKNTVYLQMNSLKPEDTAVYYCAADFGVFKSARYYYWGQGTQVTVSS | low polyreactivity |
| QVHLVESGGGLVQAGGSLRLSCAASGRIFNYYAMGWYRQAHGKERELVAAISNGGSTYYADSVKGRFTISRDNAKNTVYLQMNSLKPEDTAVYYCNAAARNGYARRVYYWGQGTQVTVSS | high polyreactivity |
| QVQLVESGGGLVQAGGSLRLTCAASGLIFRPYTMGWYRQAPGKERELVATISGSGASTNYADSVKGRFTNSRDNAKNTVYFQMNSLKPEDTSVYYCKGRSYSRMYYWGQGTQVTVSS | high polyreactivity |
| QVQLVESGGGLVQAGGSLRLSCAASGFTFQSNAMGWYRQAPGKERELVATISLTGGSTYYADSVKGRFTISRDNAKNTVYLQMNSLKPEDTAVYYCNAVRYASPYGYWGQGTQVTVSS | high polyreactivity |
| QVQLVESGGGLDQAGGSLRLSCAASGRTFWAPYTMGWYRQAPWKERELVAAISKSTTRTYYADSVKGRFTISRDNAKNTVYLQMTSLKPEDTAVYYCAVDSLYASRWVDYWGQGTQVTVSS | high polyreactivity |
| QVQLVESGGGLVQAGGSLRLSCAASGRTFGRKAMGWYRQAPGKERELVAAIARSGASTYYADSVKGRFTISRDNAKNTVYLQMNSLNPEDTAVYYCAKDVWGSRYAYDYWGQGTQVTVSS | low polyreactivity |
| QVQLVESGGGLVQAGGSLRLSCAASGSIITDYAMGWYRQAPGKERELVATITDSGGSTYYADSVKGRFTISRDNAKNTVYLQMNSLKPEDTAVYYCAADRIHSVTRYDYDYWGQGTQVTVSS | low polyreactivity |
| QVQLVESGGGLVQAGGSLRLSCASYGRIIGIYAMGWSRPAHGKERELVATITDSDDSTYYADSVKGRFTISRDNAKNTVYLQMNSLKPEDTAVYFCATAFSYGGGAYDYWGHGTQVTVSS | low polyreactivity |
| QVQLVESGGGLVQAGGSLRLSCAASGSTFSRYAMGWYRQAPGKERELVAAISSRGGSTYYADSVKGRFTISRDNAKNTVYLQMNSLKPEDTAVYYCNALTSYQNHVYPYDYWGQGTQVTVSS | high polyreactivity |

Source: the nanobody polyreactivity screen of Harvey et al. (2022)
